Measured values from patent US20100086540A1.

Legend:
[1] = target: isolated domain III of sEGFR (sEGFRd3) (UniProt P00533); test: SPR (BIAcore 3000), sEGFRd3 passed over immobilized Fab11F8, equilibrium analysis
[2] = target: soluble extracellular domain of EGFR (sEGFR) (UniProt P00533); test: SPR (BIAcore 3000), sEGFR passed over immobilized Fab11F8, equilibrium response, one-site Langmuir fit
[3] = target: soluble extracellular domain of EGFR (sEGFR) (UniProt P00533); test: SPR competition: Fab11F8 added to 600 nM sEGFR, passed over immobilized EGF

Sequence of antibody 11F8 Fab fragment (VH): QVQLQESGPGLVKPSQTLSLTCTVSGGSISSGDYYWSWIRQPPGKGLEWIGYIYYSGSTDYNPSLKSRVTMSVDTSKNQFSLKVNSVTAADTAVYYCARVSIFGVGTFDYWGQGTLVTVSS
Sequence of antibody 11F8 Fab fragment (VL): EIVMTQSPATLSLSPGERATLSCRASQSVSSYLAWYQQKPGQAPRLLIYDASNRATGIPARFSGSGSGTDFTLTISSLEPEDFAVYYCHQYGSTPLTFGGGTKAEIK

## antibody 11F8 Fab fragment
[1]
  Kd: 1 nM
[2]
  Kd: 3.3 nM
[3]
  IC50: 100 nM
